Test results reported in publication PMC7717453, “A study of Rose Bengal against a 2-keto-3-deoxy-D-manno-octulosonate cytidylyltransferase as an antibiotic candidate” (Journal of Enzyme Inhibition and Medicinal Chemistry, 2020).

Legend:
[1] = biological target: T1, BtKdsB (2-keto-3-deoxy-D-manno-octulosonate cytidylyltransferase) (Burkholderia thailandensis, UniProt Q2T0K3); assay: biochemical
T1 construct: gene kdsB; native KdsB with N-terminal tag MHHHHHH GGGGG

[2] = biological target: T2, PaKdsB (2-keto-3-deoxy-D-manno-octulosonate cytidylyltransferase) (Pseudomonas aeruginosa, UniProt Q9HZM5); assay: malachite green enzyme assay (IC50), inhibition kinetics; increased thermostability; assay type: biochemical
T2 construct: gene kdsB; native KdsB with N-terminal tag MHHHHHH EFSQQDSD
T2 sequence (Q9HZM5 1-254): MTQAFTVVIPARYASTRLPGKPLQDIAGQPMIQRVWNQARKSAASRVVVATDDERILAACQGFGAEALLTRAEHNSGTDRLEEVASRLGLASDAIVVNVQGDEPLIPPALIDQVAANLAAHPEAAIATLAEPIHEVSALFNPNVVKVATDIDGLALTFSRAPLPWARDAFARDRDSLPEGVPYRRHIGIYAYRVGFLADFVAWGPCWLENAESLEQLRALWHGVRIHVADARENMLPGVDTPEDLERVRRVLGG
Source text: malachite green enzyme assay (IC50), inhibition kinetics; increased thermostability on PaKdsB (2-keto-3-deoxy-D-manno-octulosonate cytidylyltransferase) | The IC50 value determined from the dose-dependent inhibitory curve of Rose Bengal

[3] = tested on: Nc1ccn([C@@H]2O[C@H](COP(=O)(O)OP(=O)(O)OP(=O)(O)O)[C@@H](O)[C@H]2O)c(=O)n1; assay: purified protein
[4] = tested on: O=C(O)C(=O)C[C@@H](O)[C@@H](O)[C@H](O)[C@H](O)CO; assay: purified protein
[5] = substrate: Nc1ccn([C@@H]2O[C@H](COP(=O)(O)OP(=O)(O)OP(=O)(O)O)[C@@H](O)[C@H]2O)c(=O)n1; assay: steady-state kinetics (Km), malachite green assay; assay type: biochemical, Pseudomonas aeruginosa; settings: KDO ([…]), Mg2+ ([…] MgCl2) nucleotide binding site
[6] = substrate: O=C(O)C(=O)C[C@@H](O)[C@@H](O)[C@H](O)[C@H](O)CO; assay: steady-state kinetics (Km), malachite green assay; assay type: biochemical, Pseudomonas aeruginosa; settings: CTP ([…]), Mg2+ ([…] MgCl2) substrate binding site

T1 sequence (Q2T0K3 whole entry): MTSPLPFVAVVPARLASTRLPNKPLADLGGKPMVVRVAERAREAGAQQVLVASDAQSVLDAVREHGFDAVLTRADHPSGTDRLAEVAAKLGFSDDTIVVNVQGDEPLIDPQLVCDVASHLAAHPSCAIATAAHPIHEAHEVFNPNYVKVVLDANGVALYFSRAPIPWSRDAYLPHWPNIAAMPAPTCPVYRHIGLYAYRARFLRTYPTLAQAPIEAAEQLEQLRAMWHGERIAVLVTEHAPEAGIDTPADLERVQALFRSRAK

## O=C1OC2(c3cc(I)c(O)c(I)c3Oc3c2cc(I)c(O)c3I)c2c(Cl)c(Cl)c(Cl)c(Cl)c21 [Rose Bengal]
[1]
  IC50: 7.24 µM
[2]
  IC50: 14.7 µM

## BtKdsB (2-keto-3-deoxy-D-manno-octulosonate cytidylyltransferase) (Burkholderia thailandensis E264)
[3]
  Km: 0.1239 ± 0.034 mM
  kcat: 0.142 ± 0.0193 s⁻¹
[4]
  Km: 0.056 ± 0.011 mM
  kcat: 0.116 ± 0.0062 s⁻¹

B1: PaKdsB (2-keto-3-deoxy-D-manno-octulosonate cytidylyltransferase) (Pseudomonas aeruginosa PAO1) (protein)
chain: T2 sequence (Q9HZM5 1-254)
notes: native KdsB with N-terminal tag MHHHHHH EFSQQDSD
[5]
  Km: 0.0983 ± 0.030 mM
  kcat: 0.132 ± 0.0184 s⁻¹
[6]
  Km: 0.061 ± 0.011 mM
  kcat: 0.0758 ± 0.00383 s⁻¹
